We go through three molecules from patent publication US20080227735, “Aptamers Selected From Live Tumor Cells and the Use Thereof” (COMMISSARIAT A L'ENERGIE ATOMIQUE, published 2008).

Series [1] has as its target T1, Ret receptor tyrosine kinase C634Y (RetC634Y) on PC12 MEN 2A cells (Homo sapiens, UniProt P07949 P07949:29-1114, C634Y). The series can be described thus: whole PC12 MEN 2A cells, RPMI, 37C, 10 min, polyinosine; 110 ± 47 x1000 targets/cell; no binding to parental PC12, NBTII or HeLa cells lacking Ret. The conditions noted are these: tags: stably transfected in rat PC12 cells; constitutive homodimer; chain copies: 2 (inferred); stem-loop with internal loops (predicted). As to the method: (§1) The binding of the various aptamers (or of the initial pool, as control) to the PC12 MEN 2A cells is carried out in 24-well plates (experiments carried out in triplicate), with 5′-³²P-labeled RNA. 10⁵ cells per well are incubated with various concentrations of aptamers in 200 μl of RPMI for 10 min at 37° C. in the presence of 100 μg/ml of polyinosine, as non-specific competitor. After several washes, the bound sequences are recovered in 350 μl of 0.6% SDS and the amount of radioactivity recovered is related to the number of cells by measuring the protein content in each well.

The target in series [2] is T1, Ret receptor tyrosine kinase C634Y …. The series can be described thus: whole PC12 MEN 2A cells, RPMI, 37C; 102 ± 25 x1000 targets/cell; competes with D4 (p188). To be noted: tags: stably transfected in rat PC12 cells; constitutive homodimer; chain copies: 2 (inferred); label: 5'-32P. How it is done:
as §1

Series [3] shares this target. Put plainly: whole PC12 MEN 2A cells, RPMI, 37C, 10 min, polyinosine competitor; target on cell not directly proven; 102 ± 58 x1000 targets/cell. The conditions noted are these: tags: stably transfected in rat PC12 cells; constitutive homodimer; chain copies: 2 (inferred); label: 5'-32P; stem-loop with internal loops (predicted). How it is done: as §1

T1 sequence (P07949 29-1114 C634Y, one chain of several): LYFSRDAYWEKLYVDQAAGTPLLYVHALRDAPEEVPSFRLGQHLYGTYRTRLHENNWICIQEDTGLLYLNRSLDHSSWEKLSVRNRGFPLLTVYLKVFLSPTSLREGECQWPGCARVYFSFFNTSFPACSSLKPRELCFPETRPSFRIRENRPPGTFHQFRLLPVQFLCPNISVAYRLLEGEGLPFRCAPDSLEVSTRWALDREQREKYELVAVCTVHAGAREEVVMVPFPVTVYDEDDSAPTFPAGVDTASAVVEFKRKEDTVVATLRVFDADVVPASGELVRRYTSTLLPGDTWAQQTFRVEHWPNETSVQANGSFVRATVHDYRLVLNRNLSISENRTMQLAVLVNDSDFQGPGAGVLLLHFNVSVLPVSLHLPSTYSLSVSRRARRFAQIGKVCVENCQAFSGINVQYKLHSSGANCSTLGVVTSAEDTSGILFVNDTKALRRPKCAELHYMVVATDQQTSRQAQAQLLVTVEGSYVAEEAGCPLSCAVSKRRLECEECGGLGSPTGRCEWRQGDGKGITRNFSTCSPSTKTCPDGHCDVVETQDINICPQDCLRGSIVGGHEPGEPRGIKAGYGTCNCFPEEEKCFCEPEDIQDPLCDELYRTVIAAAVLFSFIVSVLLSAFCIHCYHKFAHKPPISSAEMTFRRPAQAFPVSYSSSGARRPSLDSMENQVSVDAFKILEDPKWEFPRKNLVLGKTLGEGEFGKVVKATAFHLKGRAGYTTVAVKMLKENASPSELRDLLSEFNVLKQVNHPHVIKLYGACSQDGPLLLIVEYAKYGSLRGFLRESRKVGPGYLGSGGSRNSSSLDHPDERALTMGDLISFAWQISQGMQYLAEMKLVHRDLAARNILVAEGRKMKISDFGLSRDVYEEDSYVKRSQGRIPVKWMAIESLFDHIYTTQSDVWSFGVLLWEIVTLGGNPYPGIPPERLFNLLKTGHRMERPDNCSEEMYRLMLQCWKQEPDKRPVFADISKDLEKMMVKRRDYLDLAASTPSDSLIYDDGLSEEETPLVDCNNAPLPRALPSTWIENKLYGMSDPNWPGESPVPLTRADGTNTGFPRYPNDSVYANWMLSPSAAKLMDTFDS

B1: D4 (ssRNA)
RNA: GGGAGACAAGAAUAAACGCUCAAGCGCGGGAAUAGUAUGGAAGGAUACGUAUACCGUGCAAUCCAGGGCAACGAACGACAGGAGGCUCACAACAGGA
modifications: 2'-F pyrimidines (all C and U)
Turning to B1, the Kd in series [1] was 35 nM.

B2: D12 (ssRNA)
RNA: GGGAGACAAGAAUAAACGCUCAAGGGCUUCAUAAGCUACACCGGCCAACGCAGAAAUGCCUUAAGCCCGAGUUAACGACAGGAGGCUCACAACAGGA
modifications: 2'-F pyrimidines (all C and U)
In series [2], B2 displayed a Kd of 67 nM.

B3: D24 (ssRNA)
RNA: GGGAGACAAGAAUAAACGCUCAAGCGGUAUGUAGGGAAUAGCACUUUUUUUGCGUAUACCUACACCGCAGCGAACGACAGGAGGCUCACAACAGGA
modifications: 2'-F pyrimidines (all C and U)
With B3, the Kd in series [3] is 32 nM.

Usually Kd stands for the concentration at which binding is half-saturated.
